Laboratory results: patent publication US6451970B1, “Peptide derivatives” (Novo Nordisk A/S, priority 1996, dated 2002)

Experiments:
[1] = pig, in vivo, sc
Source text: Determination of Disappearance Half-life, T50%, from the Injection Site after Subcutaneous Injection of an Insulin Derivative in Pigs.

porcine albumin = porcine albumin (Sus scrofa, UniProt P08835); experiment: Binding to porcine albumin, in vitro assay; details: relative to the reference compound EXA
Experimental: The binding to porcine albumin was determined in an in vitro assay. The values given in Table 1 under the heading “Albumin binding” are relative to the reference compound EXA.

[2] = pH 7.3
Experimental: The lipophilicity of the insulin derivatives relative to human insulin, k″rel, was measured on a LiChrosorb RP18 (5 μm, 250×4 mm) HPLC column by isocratic elution at 40° C. using mixtures of A) 0.1 M sodium phosphate buffer, pH 7.3, containing 10% acetonitrile, and B) 50% acetonitrile in water as eluents. The elution was monitored by following the UV absorption of the eluate at 214 nm. Void time, t0, was found by injecting 0.1 mM sodium nitrate. Retention time for human insulin, thuman, was adjusted to at least 2t0 by varying the ratio between the A and B solutions. k′rel=(tderivative−t0)/(thuman−t0).

Chain of porcine albumin (P08835 25-607): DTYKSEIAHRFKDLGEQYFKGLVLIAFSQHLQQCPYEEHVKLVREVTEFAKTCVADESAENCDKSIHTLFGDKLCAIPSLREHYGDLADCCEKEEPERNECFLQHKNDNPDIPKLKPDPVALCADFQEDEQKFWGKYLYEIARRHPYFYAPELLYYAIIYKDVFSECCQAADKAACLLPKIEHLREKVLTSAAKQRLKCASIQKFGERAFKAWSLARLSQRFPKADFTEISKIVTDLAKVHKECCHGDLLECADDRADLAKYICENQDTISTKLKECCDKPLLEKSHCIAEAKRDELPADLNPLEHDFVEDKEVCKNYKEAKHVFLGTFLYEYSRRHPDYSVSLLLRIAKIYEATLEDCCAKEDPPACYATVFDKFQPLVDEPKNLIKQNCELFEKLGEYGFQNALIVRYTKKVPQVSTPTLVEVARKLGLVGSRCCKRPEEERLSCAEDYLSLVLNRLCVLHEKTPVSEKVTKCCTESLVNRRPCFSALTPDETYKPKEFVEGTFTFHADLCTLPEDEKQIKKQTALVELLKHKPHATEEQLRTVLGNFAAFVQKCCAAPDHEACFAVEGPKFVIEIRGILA

N^εB29-(CO—(CH2)14—COOH) des(B30) Human Insulin [EX2]
T50% [1]: 10 h
Albumin binding (porcine albumin): 5
Lipophilicity [2]: 2.3

N^εB29-(CO—(CH2)16—COOH) des(B30) Human Insulin [EX4]
T50% [1]: 17.1 h
Albumin binding (porcine albumin): 36
Lipophilicity [2]: 7.2

N^εB29-(CO—(CH2)18—COOH) des(B30) Human Insulin [EX3]
T50% [1]: 18 h
Albumin binding (porcine albumin): 51
Lipophilicity [2]: 17

N^εB29-(CO—(CH)12—COOH) des(B30) human insulin [EX1]
T50% [1]: 5 h
Albumin binding (porcine albumin): 0.7
Lipophilicity [2]: 1.4

N^εB29-hexadecanoyl desB30 insulin [EXB, reference compound]
T50% [1]: 12 h
Albumin binding (porcine albumin): 0.9
Lipophilicity [2]: 346

N^εB29-tetradecanoyl desB30 insulin [EXA, reference compound]
T50% [1]: 14 h
Albumin binding (porcine albumin): 1
Lipophilicity [2]: 113
